# Assay results as given in patent publication US20050227296A1, “Method for indentifying integrin antagonists” (The General Hospital Corporation, a Massachusetts …, priority 1988, published 2005).
# pIC50: −log10 of the molar value.
# Columns and labels:
# [1] = biological target: T1, fibrinogen (Homo sapiens, UniProt P02671+P02675+P02679); assay: A domain binding to fibrinogen
# T1 sequence (P02671 20-629 limits assumed): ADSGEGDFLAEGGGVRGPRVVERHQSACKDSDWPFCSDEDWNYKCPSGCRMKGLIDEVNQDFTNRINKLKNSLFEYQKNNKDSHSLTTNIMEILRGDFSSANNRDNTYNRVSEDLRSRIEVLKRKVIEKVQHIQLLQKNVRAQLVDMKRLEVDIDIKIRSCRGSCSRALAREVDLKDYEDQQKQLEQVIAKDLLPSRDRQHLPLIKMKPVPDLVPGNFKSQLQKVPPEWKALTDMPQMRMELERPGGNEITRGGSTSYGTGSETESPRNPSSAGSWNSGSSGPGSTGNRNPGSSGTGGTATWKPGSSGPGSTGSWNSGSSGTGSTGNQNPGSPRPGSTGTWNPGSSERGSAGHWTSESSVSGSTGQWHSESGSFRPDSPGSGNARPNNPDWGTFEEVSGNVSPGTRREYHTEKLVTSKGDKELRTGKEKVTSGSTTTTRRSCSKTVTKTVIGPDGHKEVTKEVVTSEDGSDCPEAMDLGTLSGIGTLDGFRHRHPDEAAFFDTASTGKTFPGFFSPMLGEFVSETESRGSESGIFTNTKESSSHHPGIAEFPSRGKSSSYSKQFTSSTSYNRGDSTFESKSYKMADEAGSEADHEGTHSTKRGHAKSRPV
# T1 sequence (P02675 31-491): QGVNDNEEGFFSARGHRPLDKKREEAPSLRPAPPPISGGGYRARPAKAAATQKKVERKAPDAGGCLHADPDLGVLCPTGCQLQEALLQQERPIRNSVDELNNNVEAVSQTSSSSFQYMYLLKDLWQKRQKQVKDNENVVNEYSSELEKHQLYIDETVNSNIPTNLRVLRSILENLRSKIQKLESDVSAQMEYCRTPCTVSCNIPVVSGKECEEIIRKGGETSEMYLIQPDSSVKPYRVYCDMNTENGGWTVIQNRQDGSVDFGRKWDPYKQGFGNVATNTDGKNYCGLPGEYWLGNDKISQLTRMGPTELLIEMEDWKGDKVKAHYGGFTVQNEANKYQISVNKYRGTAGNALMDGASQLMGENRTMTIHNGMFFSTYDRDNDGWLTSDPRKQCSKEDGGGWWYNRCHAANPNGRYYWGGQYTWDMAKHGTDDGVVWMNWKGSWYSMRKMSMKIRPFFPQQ
# T1 sequence (P02679 27-453): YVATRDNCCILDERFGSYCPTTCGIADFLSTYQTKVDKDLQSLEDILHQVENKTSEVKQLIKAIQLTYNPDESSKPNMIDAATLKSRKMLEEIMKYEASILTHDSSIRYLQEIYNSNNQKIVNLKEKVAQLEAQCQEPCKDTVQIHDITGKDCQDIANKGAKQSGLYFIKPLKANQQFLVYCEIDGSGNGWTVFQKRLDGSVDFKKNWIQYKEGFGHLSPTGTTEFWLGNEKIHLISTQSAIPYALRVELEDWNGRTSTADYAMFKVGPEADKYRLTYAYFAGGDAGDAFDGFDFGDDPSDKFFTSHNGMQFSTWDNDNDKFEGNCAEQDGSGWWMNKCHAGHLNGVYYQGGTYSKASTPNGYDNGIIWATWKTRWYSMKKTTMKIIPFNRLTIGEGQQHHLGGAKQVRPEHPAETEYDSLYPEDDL
# [2] = biological target: T2, biotinylated NIF binding to immobilized r11bA (Homo sapiens, UniProt P11215); assay: Inhibition of biotinylated NIF binding to immobilized r11bA
# T2 construct: recombinant CD11b A domain (rCD11bA) and recombinant CD11a A domain (r11aA) were expressed as GST fusion proteins; GST (N); made in house; host or cells: Escherichia coli
# T2 sequence (P11215 150-328 limits assumed): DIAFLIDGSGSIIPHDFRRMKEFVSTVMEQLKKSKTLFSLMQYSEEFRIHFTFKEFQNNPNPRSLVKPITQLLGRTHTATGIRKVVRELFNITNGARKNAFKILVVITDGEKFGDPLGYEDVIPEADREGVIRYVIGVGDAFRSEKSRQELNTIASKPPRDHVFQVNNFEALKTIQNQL
# Protocol: Immobilization of Recombinant Proteins and Polypeptide: Purified rA-domain preparations (1 μg/well), soluble CD54, human fibrinogen (Sigma Chemical Co., St. Loius, Mo.), gelatin (BioRad-Laboratories) or BSA (Calbiochem-Behring Corp.) (each at 10 μg/well) or selected A-domain-derived peptides (10 μg) were added to Immulon-2 96-well microtiter plates (Dynatech Labs, Chantilly, Va.) overnight. Quantitation of adsorbed wild-type and mutant A-domain and synthetic peptides was done using the mAb 44 in an ELISA, and the BCA kit (from Pierce Chemical Co., Rockford, Ill.), respectively. […]
# Biotinylation of recombinant NIP and Measurement of Binding to Immobilized Peptides: Recombinant NIP was labeled with sulfo-NHS-biotin as described by the manufacturer (Pierce Chemical Co.). […] Wells were then washed, incubated with alkaline phosphatase-coupled avidin, washed again, developed with substrate and quantified colormetrically using a microplate reader. […] In experiments where the effects of divalent cations on biotinylated rNIF binding to immobilized rCD11b A-domain were measured, VBSG^−− buffer (veronal-buffered saline, pH=7.4, containing 0.1% gelatin) containing 1 mM of Ca^2+, Mg^2+, Mn^2+, EDTA, EGTA, EGTA plus 1 mM MgCl2, or 1 mM MnCl2. […]
substance,measurement,setting,value
"r11bA: recombinant human CD11b A domain (Cys128 to Glu321), expressed as GST fusion protein, used as such or after thrombin cleavage",binding of the A domain to fibrinogen,[1],binds
same,effect of fluid-phase protein on biotinylated rNIF binding to immobilized r11bA,[2]; dose dependent,abolished
same,pIC50,"[2]; fluid-phase protein, read-out: half-maximal inhibition of biotinylated rNIF binding to immobilized r11bA",~9.00
